Assay results: patent US5679770A, “Polypeptide, DNA fragment encoding the same, drug composition containing the same and process for producing the same” (Mochida Pharmaceutical Co., Ltd., priority 1991, dated 1997)

target: T1, human FXa (Homo sapiens, UniProt P00742); assay: FXa-inhibiting activity (synthetic substrate S-2222); format: biochemical; conditions: relative to control AN68; concentration expressed as bovine trypsin-inhibiting activity
T1 construct: purchased American Diagnostica Inc
T1 sequence (P00742 235-488 limits assumed): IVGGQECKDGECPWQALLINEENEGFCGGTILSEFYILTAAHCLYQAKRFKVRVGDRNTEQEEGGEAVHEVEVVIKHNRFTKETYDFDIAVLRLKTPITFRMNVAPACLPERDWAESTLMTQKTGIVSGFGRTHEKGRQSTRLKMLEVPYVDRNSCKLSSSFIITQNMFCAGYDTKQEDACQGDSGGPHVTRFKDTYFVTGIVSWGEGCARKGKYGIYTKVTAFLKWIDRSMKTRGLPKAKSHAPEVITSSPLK
T1 sequence (P00742 41-179 partner limits assumed): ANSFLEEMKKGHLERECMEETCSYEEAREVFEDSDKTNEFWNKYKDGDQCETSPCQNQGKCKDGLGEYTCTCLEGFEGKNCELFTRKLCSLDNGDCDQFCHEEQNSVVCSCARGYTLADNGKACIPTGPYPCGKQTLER
Procedure: The purified polypeptide of the present invention was dissolved in 100 μl of distilled water. Polypeptide concentration of this solution was determined based on its bovine trypsin-inhibiting activity measured in accordance with the above procedure (1) using the aforementioned UTI as a standard. The thus prepared solution was then diluted to various concentration levels with 0.1% BSA/150 mM NaCl/5 mM CaCl2 /50 mM Tris-HCl buffer (pH 8.3) for use in the activity measurement. Separately from this, a polypeptide TN70 (cf. Japanese Patent Application No. 3-325220) and polypeptide AN68 were purified respectively in accordance with the procedure of Example 2(4) from a culture supernatant of E. coli JE5505(pM552) (deposit No., FERM BP-3561) and E. coli JE5505(pM594) obtained by transforming E. coli JE5505 with the aforementioned plasmid pM594 obtained in Example 4. The thus purified polypeptide TN70 and AN68 were diluted to various concentration levels to be used as control solutions.
Using a synthetic compound S-2222 (Daiichi Pure Chemicals Co., Ltd.) as a substrate, FXa-inhibiting activities in the thus prepared test sample solution and control solution were measured in accordance with the method of Ohno et al. (Ohno H. et al., Thromb. Res., vol.19, pp.579-588, 1980) as follows. First, human FXa (American Diagnostica Inc.) was dissolved in distilled water to a final concentration of 10 PEU/ml and the solution was further diluted with the aforementioned 0.1% BSA/150 mM NaCl/5 mM CaCl2 /50 mM Tris-HCl buffer (pH 8.3) to prepare 0.1 PEU/ml of FXa solution. Separately from this, a 4 mM solution of S-2222 was prepared by dissolving it in distilled water and the solution was further diluted with the 0.1% BSA/150 mM NaCl/5 mM CaCl2 /50 mM Tris-HCl buffer (pH 8.3) to obtain a 2 mM solution of S-2222.
Next, 25 μl of the test sample or control solution was mixed with 100 μl of the 0.1% BSA/150 mM NaCl/5 mM CaCl2 /50 mM Tris-HCl buffer (pH 8.3) and 25 μl of the FXa solution. After incubating statically at 37° C. for 10 minutes, 100 μl of the S-2222 solution was added to start the reaction. The reaction was carried out at 37° C. for 30 minutes and then stopped by adding 50 μl of 50% acetic acid solution to the reaction mixture. Thereafter, absorbance at a wavelength of 405 nm was measured using a spectrophotometer. In this instance, in order to eliminate absorbancy of various contents in the reaction mixture other than the reaction product, a blank solution was prepared by mixing 25 μl of the FXa solution with 50 μl of 50% acetic acid and then with 25 μl of each test sample or the control solution, 100 μl of the 0.1% BSA/150 mM NaCl/5 mM CaCl2 /50 mM Tris-HCl buffer (pH 8.3) and with 100 μl of the S-2222 solution.
The results are shown in FIG. 45 to FIG. 53 and FIG. 66. In these figures, polypeptide concentration in the reaction solution was expressed as its bovine trypsin-inhibiting activity. Also, residual human FXa activity was expressed by percentage based on the absorbance of a control reaction mixture in which 25 μl of the 0.1% BSA/150 mM NaCl/5 mM CaCl2 /50 mM Tris-HCl buffer (pH 8.3) was used instead of the test sample.

Row | Molecule | FXa-inhibiting activity, times higher than that of polypeptide AN68
1 | R11Q/Q19K/Y46D: formula 1 sequence with Gln for position 7 Arg, Lys for position 15 Gln, Asp for position 42 Tyr; SEQ. I.D. NO. 37 (protein) AACNLPIVQGPCRAFIKLWAFDAVKGKCVLFPYGGCQGNGNKFDSEKECREYCGVPGDGDEELLRFSN | about twenty
2 | R11A/Q19K/Y46D: formula 1 sequence with Ala for position 7 Arg, Lys for position 15 Gln, Asp for position 42 Tyr; SEQ. I.D. NO. 43 (protein) AACNLPIVAGPCRAFIKLWAFDAVKGKCVLFPYGGCQGNGNKFDSEKECREYCGVPGDGDEELLRFSN | about 9 times
3 | R11E/Q19K/Y46E: formula 1 sequence with Glu for position 7 Arg, Lys for position 15 Gln, Glu for position 42 Tyr; SEQ. I.D. NO. 40 (protein) AACNLPIVEGPCRAFIKLWAFDAVKGKCVLFPYGGCQGNGNKFESEKECREYCGVPGDGDEELLRFSN | about 13 times
4 | R11S/Q19K/Y46D: formula 1 sequence with Ser for position 7 Arg, Lys for position 15 Gln, Asp for position 42 Tyr; SEQ. I.D. NO. 42 (protein) AACNLPIVSGPCRAFIKLWAFDAVKGKCVLFPYGGCQGNGNKFDSEKECREYCGVPGDGDEELLRFSN | about 8 times

Other lines, results leading:

Row | FXa-inhibiting activity, times higher than that of polypeptide AN68 | Molecule
5 | about 5 times | R11D/Q19K/Y46D: formula 1 sequence with Asp for position 7 Arg, Lys for position 15 Gln, Asp for position 42 Tyr; SEQ. I.D. NO. 38 (protein) AACNLPIVDGPCRAFIKLWAFDAVKGKCVLFPYGGCQGNGNKFDSEKECREYCGVPGDGDEELLRFSN
6 | about 16 times | R11L/Q19K/Y46D: formula 1 sequence with Leu for position 7 Arg, Lys for position 15 Gln, Asp for position 42 Tyr; SEQ. I.D. NO. 39 (protein) AACNLPIVLGPCRAFIKLWAFDAVKGKCVLFPYGGCQGNGNKFDSEKECREYCGVPGDGDEELLRFSN
7 | about 10 times | R11N/Q19K/Y46D: formula 1 sequence with Asn for position 7 Arg, Lys for position 15 Gln, Asp for position 42 Tyr; SEQ. I.D. NO. 41 (protein) AACNLPIVNGPCRAFIKLWAFDAVKGKCVLFPYGGCQGNGNKFDSEKECREYCGVPGDGDEELLRFSN
